Test results as given in patent US20250136938A1.

Target: KRAS^G12V-reactive TCR (Pt. 4148)
Assay: tetramer staining, flow cytometry on 41BB-enriched CD8 memory T cells of Pt. 4148

With “HLA-A*11:01-KRAS^G12V 9-mer tetramer (from UniProt P01116 8-16; P61769 21-119) (peptide-MHC)” the percent of memory CD8 cells in the culture bound by tetramer was 15.9%.
